Legend:
CaV2.2 = target: T1, CaV2.2 (Rattus norvegicus, UniProt Q02294); assay: Peptide spot array far-Western: CaV2.2 binding to 15-mer CRMP-2 peptides; settings: 15-mer peptide #96 overlaid with spinal cord lysates / rat brain synaptosomes
T1 construct: incubated with a purified synaptosome fraction enriched in Ca^2+ channels; from tissue; host or cells: P1 neonatal rat brain synaptosomes, enriched on WGA-Sepharose and heparin-agarose
Method: Purification/Enrichment of Ca^2+ channels from synaptosomes. In order to prepare a rich source of CaV2.2 for the far-Western analyses (see below), synaptosomes from P1 neonatal rat brains were solubilized with digitonin and enriched by chromatography on WGA-Sepharose as described previously. Briefly, 30 PN1 neonatal rat brains were homogenized in 180 ml of 320 mM sucrose with a glass-Teflon homogenizer. After a short centrifugation (5000 rpm, 2 min), the supernatant (SN) was centrifuged (42,000 rpm, 60 min). The membranes were solubilized with 1.2% digitonin, 80 mM sodium phosphate buffer, pH 7.4 for 20 min. Unsolubilized material was removed by the centrifugation as before, and the supernatant (S3) was poured over a 40 ml WGA-Sepharose column (50 ml/h). After incubation for 1 hr at 4° C., the column was washed with 10 column volumes of 0.1% digitonin, 75 mM NaCl, 50 mM sodium phosphate, 10 mM Tris-HCl (pH 7.4) at a flow rate of 50 ml/hr. The glycoproteins bound to the WGA-Sepharose column were eluted with 100 mM N-acetyl-D-glucosamine (Sigma, St. Louis, Mo.) in the same buffer at a flow rate of 50 ml/hr. Three milliliter fractions were collected and the protein concentration of each fraction was determined by BCA protein assay kit (Thermo Fisher Scientific, Shelbyville, Ind.). […]

[1] = system: CaV2.2 cytosolic loop 1 (L1) and distal C-terminus (Ct-dis); assay: Surface plasmon resonance binding to CaV2.2 L1- and Ct-dis-GST fusion proteins; parameters: species or system rat; settings: peptide 1/3/5 μM
Text: In Vitro Protein Binding Assays. Using Vector NTI (v. 11; Invitrogen) software, primers were designed to amplify regions corresponding to the first cytoslic loop (L1; amino acids 356 to 483) and the distal end of the C-terminus (Ct-dis; amino acids 2133 to 2348) of rat CaV2.2 cDNA from P3 rat brain cDNA. The primers harbored restriction sites (Bam HI or Bgl II (5′) and Eco RI or Mfe I (3′)) to facilitate cloning into […]. In addition to the GST-tag, this vector contains the Glu tag, a sequence of six amino acids (EYMPME). Correctly-amplified PCR products and parent pGex-3x-Glu vector were digested with the indicated restriction enzymes, and then extracted following electrophoresis on an agarose gel. The extracted DNAs were quantified (Nanodrop 1000, Thermo Scientific), and ligations were performed using 6:1 and 3:1 insert to vector molar ratios. […]
Surface Plasmon resonance (SPR). Binding analyses between TAT CBD3 or TAT control peptides and CaV2.2 L1- or Ct-dis-GST fusion proteins was determined by surface plasmon resonance using a BIAcore3000 instrument (Biacore AB, Uppsala, Sweden). […]
Biochemistry and immunocytochemistry experiments. […] The binding between TAT CBD3 or TAT control peptides and CaV2.2 L1- or Ct-dis-GST fusion proteins was determined by surface plasmon resonance using a BIAcore3000 instrument (Biacore AB, Uppsala, Sweden).

T1 sequence (Q02294 whole entry): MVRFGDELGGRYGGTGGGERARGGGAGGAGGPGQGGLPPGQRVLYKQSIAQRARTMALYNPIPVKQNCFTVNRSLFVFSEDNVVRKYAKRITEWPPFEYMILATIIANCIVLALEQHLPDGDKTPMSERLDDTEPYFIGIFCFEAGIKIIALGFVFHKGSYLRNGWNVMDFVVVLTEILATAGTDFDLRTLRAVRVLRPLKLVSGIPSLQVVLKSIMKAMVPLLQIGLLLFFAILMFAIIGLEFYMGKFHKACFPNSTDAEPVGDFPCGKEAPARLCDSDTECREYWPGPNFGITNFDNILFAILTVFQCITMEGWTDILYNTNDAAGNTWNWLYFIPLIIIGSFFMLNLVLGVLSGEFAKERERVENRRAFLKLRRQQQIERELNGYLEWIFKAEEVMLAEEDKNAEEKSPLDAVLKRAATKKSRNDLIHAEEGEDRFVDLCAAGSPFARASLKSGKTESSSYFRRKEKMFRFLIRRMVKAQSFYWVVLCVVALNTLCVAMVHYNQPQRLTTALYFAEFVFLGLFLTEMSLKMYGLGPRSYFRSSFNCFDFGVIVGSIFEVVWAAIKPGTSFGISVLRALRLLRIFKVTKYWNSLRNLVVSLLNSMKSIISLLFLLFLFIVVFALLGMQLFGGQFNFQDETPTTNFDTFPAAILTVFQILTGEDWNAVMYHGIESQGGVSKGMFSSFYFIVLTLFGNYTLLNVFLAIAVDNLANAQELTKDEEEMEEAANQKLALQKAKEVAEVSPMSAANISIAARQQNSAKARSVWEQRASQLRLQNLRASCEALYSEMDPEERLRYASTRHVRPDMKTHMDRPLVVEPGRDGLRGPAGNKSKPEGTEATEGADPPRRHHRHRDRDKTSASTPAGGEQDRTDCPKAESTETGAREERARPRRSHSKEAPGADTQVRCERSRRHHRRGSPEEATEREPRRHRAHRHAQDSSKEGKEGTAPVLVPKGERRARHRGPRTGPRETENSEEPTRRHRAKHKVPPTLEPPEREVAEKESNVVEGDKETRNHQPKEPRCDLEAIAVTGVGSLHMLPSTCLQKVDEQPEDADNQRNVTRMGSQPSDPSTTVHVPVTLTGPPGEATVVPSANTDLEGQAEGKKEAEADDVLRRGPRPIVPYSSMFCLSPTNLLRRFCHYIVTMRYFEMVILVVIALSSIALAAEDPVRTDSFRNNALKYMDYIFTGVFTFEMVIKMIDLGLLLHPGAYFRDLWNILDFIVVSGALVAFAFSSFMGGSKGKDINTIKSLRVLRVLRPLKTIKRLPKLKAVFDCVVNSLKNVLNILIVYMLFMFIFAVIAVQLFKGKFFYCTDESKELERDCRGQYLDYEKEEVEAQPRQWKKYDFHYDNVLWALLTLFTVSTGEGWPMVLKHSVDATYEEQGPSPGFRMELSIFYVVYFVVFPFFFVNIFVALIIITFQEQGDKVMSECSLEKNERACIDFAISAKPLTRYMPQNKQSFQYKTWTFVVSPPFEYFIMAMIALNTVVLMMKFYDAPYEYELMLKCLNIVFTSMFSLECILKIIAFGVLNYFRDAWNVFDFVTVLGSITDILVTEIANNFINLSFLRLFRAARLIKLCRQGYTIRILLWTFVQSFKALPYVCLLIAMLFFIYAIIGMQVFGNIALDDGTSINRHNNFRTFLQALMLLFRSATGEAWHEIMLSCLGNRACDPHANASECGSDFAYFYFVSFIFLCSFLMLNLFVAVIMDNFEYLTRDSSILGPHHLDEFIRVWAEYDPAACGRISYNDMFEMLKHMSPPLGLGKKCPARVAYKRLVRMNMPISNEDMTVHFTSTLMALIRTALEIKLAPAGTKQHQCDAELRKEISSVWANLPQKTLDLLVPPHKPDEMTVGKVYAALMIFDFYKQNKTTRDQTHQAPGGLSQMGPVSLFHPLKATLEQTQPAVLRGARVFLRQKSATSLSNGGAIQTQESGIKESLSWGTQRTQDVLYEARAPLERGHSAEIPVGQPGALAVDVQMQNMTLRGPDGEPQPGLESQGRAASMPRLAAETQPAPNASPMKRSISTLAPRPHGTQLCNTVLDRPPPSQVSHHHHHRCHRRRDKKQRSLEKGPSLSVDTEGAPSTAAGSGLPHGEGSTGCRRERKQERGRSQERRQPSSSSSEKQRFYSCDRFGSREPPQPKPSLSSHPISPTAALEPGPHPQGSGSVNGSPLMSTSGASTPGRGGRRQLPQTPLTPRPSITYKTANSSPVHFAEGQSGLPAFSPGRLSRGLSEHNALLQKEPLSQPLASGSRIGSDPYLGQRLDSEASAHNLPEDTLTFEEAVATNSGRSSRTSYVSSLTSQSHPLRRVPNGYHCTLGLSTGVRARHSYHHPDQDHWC

With ARSRLAELRGVPRGL (CBD3) the “binding to CaV2.2” value (CaV2.2) was “bound to the CaV2.2” and the “binding to immobilized L1 and Ct-dis proteins (surface plasmon resonance)” value [1] was “bound to immobilized L1 and Ct-dis proteins”.
